From IntAct's records for PubMed 22238662

B1: Adhesion G-protein coupled receptor G1 (Mus musculus), Q8K209 (parent)
chain: MAVQVLRQMVYFLLSLFSLVQGAHSGSPREDFRFCGQRNQTQQSTLHYDQSSEPHIFVWNTEETLTIRAPFLAAPDIPRFFPEPRGLYHFCLYWSRHTGRLHLRYGKHDYLLSSQASRLLCFQKQEQSLKQGAPLIATSVSSWQIPQNTSLPGAPSFIFSFHNAPHKVSHNASVDMCDLKKELQQLSRYLQHPQKAAKRPTAAFISQQLQSLESKLTSVSFLGDTLSFEEDRVNATVWKLPPTAGLEDLHIHSQKEEEQSEVQAYSLLLPRAVFQQTRGRRRDDAKRLLVVDFSSQALFQDKNSSQVLGEKVLGIVVQNTKVTNLSDPVVLTFQHQPQPKNVTLQCVFWVEDPASSSTGSWSSAGCETVSRDTQTSCLCNHLTYFAVLMVSSTEVEATHKHYLTLLSYVGCVISALACVFTIAAYLCSRRKSRDYTIKVHMNLLSAVFLLDVSFLLSEPVALTGSEAACRTSAMFLHFSLLACLSWMGLEGYNLYRLVVEVFGTYVPGYLLKLSIVGWGFPVFLVTLVALVDVNNYGPIILAVRRTPERVTYPSMCWIRDSLVSYVTNLGLFSLVFLFNLAMLATMVVQILRLRPHSQNWPHVLTLLGLSLVLGLPWALVFFSFASGTFQLVILYLFSIITSFQGFLIFLWYWSMRFQAQGGPSPLKNNSDSAKLPISSGSTSSSRI

Variants of: B1
Settings: with co3a1_mouse Col3a1, P08121
Chain of co3a1_mouse Col3a1, P08121 (P08121 whole entry): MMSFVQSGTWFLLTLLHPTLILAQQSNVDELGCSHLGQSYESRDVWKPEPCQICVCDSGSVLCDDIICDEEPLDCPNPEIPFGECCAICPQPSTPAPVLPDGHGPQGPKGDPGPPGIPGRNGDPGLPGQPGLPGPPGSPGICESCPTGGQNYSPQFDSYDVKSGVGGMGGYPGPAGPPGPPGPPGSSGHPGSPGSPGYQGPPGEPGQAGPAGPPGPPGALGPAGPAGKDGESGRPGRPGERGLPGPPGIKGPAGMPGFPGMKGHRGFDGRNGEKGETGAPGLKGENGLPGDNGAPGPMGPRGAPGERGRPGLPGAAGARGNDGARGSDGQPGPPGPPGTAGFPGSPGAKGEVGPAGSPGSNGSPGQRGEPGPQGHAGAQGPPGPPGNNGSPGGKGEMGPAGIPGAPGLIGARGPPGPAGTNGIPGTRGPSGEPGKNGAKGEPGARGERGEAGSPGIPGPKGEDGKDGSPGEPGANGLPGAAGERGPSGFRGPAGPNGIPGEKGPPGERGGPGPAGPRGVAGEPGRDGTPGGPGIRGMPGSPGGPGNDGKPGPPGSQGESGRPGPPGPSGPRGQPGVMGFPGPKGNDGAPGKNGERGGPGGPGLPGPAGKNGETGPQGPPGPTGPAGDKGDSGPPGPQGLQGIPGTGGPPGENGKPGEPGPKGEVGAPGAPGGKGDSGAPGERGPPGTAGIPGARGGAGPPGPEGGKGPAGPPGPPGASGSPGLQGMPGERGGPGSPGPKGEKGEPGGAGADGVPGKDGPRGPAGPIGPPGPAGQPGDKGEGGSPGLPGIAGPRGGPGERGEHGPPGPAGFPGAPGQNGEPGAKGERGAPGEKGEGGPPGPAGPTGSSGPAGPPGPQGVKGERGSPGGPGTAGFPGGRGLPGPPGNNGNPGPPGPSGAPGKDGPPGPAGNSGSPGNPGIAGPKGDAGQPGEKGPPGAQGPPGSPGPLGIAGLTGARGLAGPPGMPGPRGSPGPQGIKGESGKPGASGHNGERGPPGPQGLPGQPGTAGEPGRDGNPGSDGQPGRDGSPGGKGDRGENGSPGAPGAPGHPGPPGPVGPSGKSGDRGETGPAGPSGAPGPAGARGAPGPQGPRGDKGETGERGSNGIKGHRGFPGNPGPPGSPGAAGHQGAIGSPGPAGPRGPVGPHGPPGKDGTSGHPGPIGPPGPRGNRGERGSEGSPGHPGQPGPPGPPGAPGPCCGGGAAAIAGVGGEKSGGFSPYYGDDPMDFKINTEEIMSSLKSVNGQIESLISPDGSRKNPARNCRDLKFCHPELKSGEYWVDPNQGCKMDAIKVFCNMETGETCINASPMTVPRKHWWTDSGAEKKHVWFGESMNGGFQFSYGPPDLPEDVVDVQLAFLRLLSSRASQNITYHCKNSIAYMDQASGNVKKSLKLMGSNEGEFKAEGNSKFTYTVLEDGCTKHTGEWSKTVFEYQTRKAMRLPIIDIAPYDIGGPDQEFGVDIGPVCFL

Variant	effect of a mutation on the interaction
C91S	disrupting interaction
Y88C	disrupting interaction
R38W	disrupting interaction
R38Q	disrupting interaction
